This is an account of results in publication PMC8455534, “A new carboxypeptidase from Aspergillus niger with good thermostability, pH stability and broad substrate specificity” (Scientific Reports, 2021).

What all share (assay): ninhydrin release assay, A570, Lineweaver-Burk
Common to all, as to assay type: biochemical, Aspergillus niger
Common to all, as to details: 0.1 mol L^−1 disodium hydrogen phosphate-citric acid buffer, pH 6.0, 45 °C

In data set [1] the test system is T1, CC(C)C[C@H](NC(=O)[C@H](Cc1ccccc1)NC(=O)OCc1ccccc1)C(=O)O.
T1 construct: ORF 1479 bp, 492 residues with predicted 19-residue signal peptide; secreted from Pichia pastoris GS115 (pPIC9K), purified; no tag told

The subject of data set [2] is T2, C[C@H](NC(=O)CNC(=O)OCc1ccccc1)C(=O)O.
T2 construct: ORF 1479 bp, 492 residues with predicted 19-residue signal peptide; secreted from Pichia pastoris GS115 (pPIC9K), purified; no tag told

The subject of data set [3] is T3, C[C@H](NC(=O)OCc1ccccc1)C(=O)N[C@@H](CCC(=O)O)C(=O)O.
T3 construct: ORF 1479 bp, 492 residues with predicted 19-residue signal peptide; secreted from Pichia pastoris GS115 (pPIC9K), purified; no tag told

For data set [4], the system named is T4, C[C@H](NC(=O)OCc1ccccc1)C(=O)N[C@@H](CCCCN)C(=O)O.
T4 construct: ORF 1479 bp, 492 residues with predicted 19-residue signal peptide; secreted from Pichia pastoris GS115 (pPIC9K), purified; no tag told

Data set [5] concerns T5, O=C(O)CNC(=O)[C@@H]1CCCN1C(=O)OCc1ccccc1.
T5 construct: ORF 1479 bp, 492 residues with predicted 19-residue signal peptide; secreted from Pichia pastoris GS115 (pPIC9K), purified; no tag told

For “CapA (serine carboxypeptidase) (Aspergillus niger CBS 513.88)”, the Km – broadly, the substrate concentration at which the rate is half of its maximum – was 63 ± 10 µM in data set [1]; 240 ± 20 µM in data set [2]; 1440 ± 90 µM in data set [3]; 180 ± 30 µM in data set [4]; 1170 ± 210 µM in data set [5]. Also, the Vmax (usually the rate approached at saturating substrate) in data set [1] came out at 54800 µM/min/mg; in data set [2] it was 42700 µM/min/mg; in data set [3], 6490 µM/min/mg; in data set [4], 41900 µM/min/mg; in data set [5], 9770 µM/min/mg. The kcat (in general, the maximal rate divided by the concentration of active sites) in data set [1] is 11.7 ± 1.02 s⁻¹; in data set [2] it was 1.71 ± 0.08 s⁻¹; in data set [3], 0.18 ± 0.01 s⁻¹; in data set [4], 2.32 ± 0.17 s⁻¹; in data set [5], 0.47 ± 0.02 s⁻¹. For the same substance, the specificity constant (kcat/Km) (in general, the turnover number divided by the Michaelis constant) worked out at 186000 ± 16700 M⁻¹ s⁻¹ in data set [1]; 7130 ± 480 M⁻¹ s⁻¹ in data set [2]; 130 ± 10 M⁻¹ s⁻¹ in data set [3]; 12900 ± 1130 M⁻¹ s⁻¹ in data set [4]; 400 ± 50 M⁻¹ s⁻¹ in data set [5].
